From patent US20190056396A1 (GLENMARK PHARMACEUTICALS S A, published 2019) come the findings set out here.

In assay [1] the target is T1, Protein A (UniProt P38507 37-477).
T1 construct: also called Protein A biosensors
Kind of assay: flow cytometry, FITC-labelled Protein A on CHO-S cells transfected with pHC-M1M2 + pLC.

The target in assay [2] is T1, Protein A. Nature of the assay: Octet QK, Protein A biosensors, supernatant day 6.

B1: heavy chain-light chain homodimer of the BEAT antibody displayed on the cell membrane of CHO-S cells via the M1M2 transmembrane region (pHC-M1M2 + pLC) (antibody)
heavy: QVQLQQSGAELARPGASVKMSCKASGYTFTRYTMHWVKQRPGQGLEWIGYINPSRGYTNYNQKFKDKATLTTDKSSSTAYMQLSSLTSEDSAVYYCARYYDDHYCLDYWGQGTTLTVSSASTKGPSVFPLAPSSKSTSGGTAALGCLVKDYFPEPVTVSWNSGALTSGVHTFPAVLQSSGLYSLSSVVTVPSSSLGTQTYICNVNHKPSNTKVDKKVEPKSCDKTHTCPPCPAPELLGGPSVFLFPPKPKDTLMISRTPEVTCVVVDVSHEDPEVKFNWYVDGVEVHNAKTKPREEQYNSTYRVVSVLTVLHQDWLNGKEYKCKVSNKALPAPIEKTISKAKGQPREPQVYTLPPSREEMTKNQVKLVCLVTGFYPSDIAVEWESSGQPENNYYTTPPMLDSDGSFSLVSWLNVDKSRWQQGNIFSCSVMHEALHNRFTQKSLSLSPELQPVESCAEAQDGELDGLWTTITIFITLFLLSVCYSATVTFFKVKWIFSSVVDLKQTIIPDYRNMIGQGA
light: QIVLTQSPAIMSASPGEKVTMTCSASSSVSYMNWYQQKSGTSPKRWIYDTSKLASGVPAHFRGSGSGTSYSLTISGMEAEDAATYYCQQWSSNPFTFGSGTKLEINRTVAAPSVFIFPPSDEQLKSGTASVVCLLNNFYPREAKVQWKVDNALQSGNSQESVTEQDSKDSTYSLSSTLTLSKADYEKHKVYACEVTHQGLSSPVTKSFNRGEC
notes: also called Fab-DIM; Fab homodimer
Consider B1, for which the binding result with Protein A [1] is “no binding”.

B2: secreted heavy chain-light chain homodimer of the BEAT antibody (antibody)
heavy: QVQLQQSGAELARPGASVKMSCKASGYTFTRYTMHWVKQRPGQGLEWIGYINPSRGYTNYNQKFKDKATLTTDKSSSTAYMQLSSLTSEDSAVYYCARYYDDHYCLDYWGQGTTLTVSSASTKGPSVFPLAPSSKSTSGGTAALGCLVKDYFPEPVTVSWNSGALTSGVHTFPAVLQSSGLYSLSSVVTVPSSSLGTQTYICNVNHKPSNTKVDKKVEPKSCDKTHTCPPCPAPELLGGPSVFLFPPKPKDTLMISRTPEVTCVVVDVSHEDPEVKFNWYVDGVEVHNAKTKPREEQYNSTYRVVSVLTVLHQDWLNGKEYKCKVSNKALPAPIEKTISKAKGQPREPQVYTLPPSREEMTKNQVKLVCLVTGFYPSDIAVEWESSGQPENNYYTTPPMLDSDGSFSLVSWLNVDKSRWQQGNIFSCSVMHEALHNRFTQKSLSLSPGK
light: QIVLTQSPAIMSASPGEKVTMTCSASSSVSYMNWYQQKSGTSPKRWIYDTSKLASGVPAHFRGSGSGTSYSLTISGMEAEDAATYYCQQWSSNPFTFGSGTKLEINRTVAAPSVFIFPPSDEQLKSGTASVVCLLNNFYPREAKVQWKVDNALQSGNSQESVTEQDSKDSTYSLSSTLTLSKADYEKHKVYACEVTHQGLSSPVTKSFNRGEC
notes: as for B1
Turning to B2, the binding result in the assay with Protein A [2] is on record as “no binding”.
